# Test results reported in IntAct's records for PubMed 23918659.
# B1: Vacuolar protein sorting-associated protein 33B (Homo sapiens), Q9H267 (parent)
# chain: MAFPHRPDAPELPDFSMLKRLARDQLIYLLEQLPGKKDLFIEADLMSPLDRIANVSILKQHEVDKLYKVENKPALSSNEQLCFLVRPRIKNMRYIASLVNADKLAGRTRKYKVIFSPQKFYACEMVLEEEGIYGDVSCDEWAFSLLPLDVDLLSMELPEFFRDYFLEGDQRWINTVAQALHLLSTLYGPFPNCYGIGRCAKMAYELWRNLEEEEDGETKGRRPEIGHIFLLDRDVDFVTALCSQVVYEGLVDDTFRIKCGSVDFGPEVTSSDKSLKVLLNAEDKVFNEIRNEHFSNVFGFLSQKARNLQAQYDRRRGMDIKQMKNFVSQELKGLKQEHRLLSLHIGACESIMKKKTKQDFQELIKTEHALLEGFNIRESTSYIEEHIDRQVSPIESLRLMCLLSITENGLIPKDYRSLKTQYLQSYGPEHLLTFSNLRRAGLLTEQAPGDTLTAVESKVSKLVTDKAAGKITDAFSSLAKRSNFRAISKKLNLIPRVDGEYDLKVPRDMAYVFGGAYVPLSCRIIEQVLERRSWQGLDEVVRLLNCSDFAFTDMTKEDKASSESLRLILVVFLGGCTFSEISALRFLGREKGYRFIFLTTAVTNSARLMEAMSEVKA
# partner: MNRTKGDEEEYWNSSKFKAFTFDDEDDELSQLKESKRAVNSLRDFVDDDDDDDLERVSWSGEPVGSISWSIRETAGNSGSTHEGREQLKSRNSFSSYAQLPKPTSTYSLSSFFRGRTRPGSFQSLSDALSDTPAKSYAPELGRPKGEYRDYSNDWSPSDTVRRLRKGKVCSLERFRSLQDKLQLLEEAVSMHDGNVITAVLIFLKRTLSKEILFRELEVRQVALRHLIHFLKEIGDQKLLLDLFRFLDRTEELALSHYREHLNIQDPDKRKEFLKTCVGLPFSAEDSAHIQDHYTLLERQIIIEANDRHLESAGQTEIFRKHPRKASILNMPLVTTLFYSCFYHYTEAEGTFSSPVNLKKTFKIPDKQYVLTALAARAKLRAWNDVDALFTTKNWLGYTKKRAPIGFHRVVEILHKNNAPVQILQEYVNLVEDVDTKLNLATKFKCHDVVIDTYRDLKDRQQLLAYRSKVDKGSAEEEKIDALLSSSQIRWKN
# Variants of: B1
# Settings: with spe39_human VIPAS39, Q9H9C1
row,Variant,effect of a mutation on the interaction
1,G249V,decreasing interaction
2,L30P,decreasing interaction

# Variants of: B1
# Settings: with spe39_human VIPAS39, Q9H9C1
# Remark: another data set of the same source
row,Variant,effect of a mutation on the interaction
1,V251A;D252A;D253A,disrupting interaction
2,D232A;R233A;D234A,disrupting interaction
3,V235A;D236A;F237A,disrupting interaction

# Variants of: B1
# Settings: with spe39_human VIPAS39, Q9H9C1
# Remark: another data set of the same source
row,Variant,effect of a mutation on the interaction
1,D234H,decreasing interaction
2,S243F,decreasing interaction
3,D252E,decreasing interaction

# Variants of: B1
# Settings: with spe39_human VIPAS39, Q9H9C1
# Remark: another data set of the same source
row,Variant,effect of a mutation on the interaction
1,L30P,disrupting interaction
